Assay [1] addresses T1, human CD47 expressed on the cell surface (human, UniProt Q08722 19-323).
T1 construct: whole, on cells; also called cell surface CD47; CD47 on Raji, OCI-Ly3, Fadu cells, human RBCs, platelets and blood cells
The assay is described as follows: blocking of human SIRPα binding to OCI-Ly3 cells; competitor SIRPα (FIG. 21).

Assay [2] concerns the target T1, human CD47 expressed on the cell surface. The assay is described as follows: blocking of human SIRPα binding to Raji cells; competitor SIRPα at a saturating concentration, secondary antibody detection; Raji cells (CD47+/CD20+ Burkitt's lymphoma line); blocking of human SIRPα binding.
Assay [3] shares this target. The assay is described as follows: blocking of human SIRPα binding to OCI-Ly3 cells; competitor SIRPα at a saturating concentration, secondary antibody detection; OCI-Ly3 cells (CD20+ DLBCL line); blocking of human SIRPα binding.
In the next assay the target is T2, human CD20 on cells (human, UniProt P11836 1-297).
T2 construct: whole, on cells; The CD20+ cells in these assays also carry CD47; also called CD20 on B cells and Raji cells
T2 sequence (looked up): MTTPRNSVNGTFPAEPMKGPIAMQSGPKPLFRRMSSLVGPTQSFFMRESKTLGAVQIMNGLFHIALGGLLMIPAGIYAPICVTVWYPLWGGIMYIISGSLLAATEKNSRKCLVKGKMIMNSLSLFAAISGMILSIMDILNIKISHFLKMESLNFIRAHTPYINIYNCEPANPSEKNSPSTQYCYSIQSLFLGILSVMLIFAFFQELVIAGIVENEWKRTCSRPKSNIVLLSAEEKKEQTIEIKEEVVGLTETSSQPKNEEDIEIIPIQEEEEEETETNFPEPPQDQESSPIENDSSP
The assay is described as follows: binding to Raji cells (CD20+/CD47+), MFI on the sheet (the legend paragraph 49 says SPR); the signal is not resolved between the CD20 and CD47 arms.

The target in assay [4] is T1, human CD47 expressed on the cell surface. Put plainly: cell-based or functional assay.
The target in assay [5] is T3, human CD47 ECD (human, UniProt Q08722 19-139).
T3 construct: extracellular domain; also called human CD47 extracellular domain
Put plainly: SPR. Background: SPR reads the build-up and loss of mass on a sensor chip optically.

The next assay concerns the target T4, cynomolgus CD47 ECD (cynomolgus, UniProt A0A2K5X523 19-139).
T4 construct: extracellular domain
Put plainly: SPR.

The target in another assay is T5, mouse CD47 (mouse, UniProt Q61735 19-140, limits assumed).
T5 sequence (looked up): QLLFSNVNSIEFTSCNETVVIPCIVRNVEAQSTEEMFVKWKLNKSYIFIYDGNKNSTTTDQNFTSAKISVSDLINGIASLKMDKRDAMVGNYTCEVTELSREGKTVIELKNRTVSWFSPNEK
The assay is described as follows: SPR.

In assay [6] the target is T3, human CD47 ECD. The assay is described as follows: column 'Human CD47 KD (µM)'; the sheet names no assay (SPR per paragraph 7 and paragraph 162).
The target of assay [7] is T1, human CD47 expressed on the cell surface. Put plainly: cell-based or functional assay. This is another data set of the same source.

B1: TPP-23 (408_437 with IgG1) (antibody, V domains shown)
VH: QMQLVQSGAEVKKPGSSVKVSCKASGFNIKDYYLHWVRQAPGKGLEWMGWIDPDQGDTEYAQKFQGRVTITRDRSTSTAYMELRSLRAEDTAVYYCNAAYGSSSYPMDYWGQGTLVTVSS
VL: NIQMTQSPSSLSASVGDRVTITCRASQDIHRYLSWFQQKPGKVPKHLIYRANRLVSGVPSRFSGSGSGTEFTLTISSLQPEDFATYYCLQYDEFPYTFGGGTKVEIK
notes: Monospecific IgG1 with the 408_437 Fab; also called parental CD47 mAb
On to B1, for which the IC50 (commonly the concentration needed to halve the response being measured) in [1] turned out to be 0.11 nM.

B2: TPP-1360 (bispecific antibody, human IgG1, kappa)
light 1: NIQMTQSPSSLSASVGDRVTITCRASQDIHRYLSWFQQKPGKVPKHLIYRESRFVDGVPSRFSGSGSGTEFTLTISSLQPEDFATYYCLQYDEFPYTFGGGTKVEIKRTVAAPSVFIFPPSDEELKSGTASVVCWLNNFYPREAKVQWKVDNALQSGNSEESVTEQDSKDSTYSLSSTLELSKADYEKHKVYACEVTHQGLSSPVTKSFNRGEC
heavy 1: QMQLVQSGAEVKKPGSSVKVSCKASGFNIKDYYLHWVRQAPGKGLEWMGWIDPDQGDTYYAQKFQGRVTITRDRSTSTAYMELRSLRAEDTAVYYCNAAYGESSYPMDYWGQGTLVTVSSASTKGPSVFPLAPSSKSTSGGTAALGCLVKDYFPEPVTVSWNSGALTSGVHTFPAVLKSSGLYSLSSVVTVPSSSLGTQTYICNVNHKPSNTKVDKKVEPKSCDKTHTCPPCPAPELLGGPSVFLFPPKPKDTLMISRTPEVTCVVVDVSHEDPEVKFNWYVDGVEVHNAKTKPREEQYNSTYRVVSVLTVLHQDWLNGKEYKCKVSNKALPAPIEKTISKAKGQPREPQVYVLPPSREEMTKNQVSLLCLVKGFYPSDIAVEWESNGQPENNYLTWPPVLDSDGSFFLYSKLTVDKSRWQQGNVFSCSVMHEALHNHYTQKSLSLSPGK
light 2: QIVLSQSPAILSASPGEKVTMTCRASSSVSYIHWFQQKPGSSPKPWIYATSNLASGVPVRFSGSGSGTSYSLTISRVEAEDAATYYCQQWTSNPPTFGGGTKLEIKRTVAAPSVAIFPPSDERLKSGTASVVCVLNNFYPREAKVQWKVDNALQSGNSQESVTEQDSKDSTYSLSSRLTLSKADYEKHKVYACEVTHQGLSSPVTKSFNRGEC
heavy 2: QVQLQQPGAELVKPGASVKMSCKASGYTFTSYNMHWVKQTPGRGLEWIGAIYPGNGDTSYNQKFKGKATLTADKSSSTAYMQLSSLTSEDSAVYYCARSTYYGGDWYFNVWGAGTTVTVSAASTKGPSVFPLAPSSKSTSGGTAWLGCEVTDYFPEPVTVSWNSGALTSGVHTFPAVLESSGLYSLSSVVTVPSSSLGTQTYICNVNHKPSNTKVDKKVEPKSCDKTHTCPPCPAPELLGGPSVFLFPPKPKDTLMISRTPEVTCVVVDVSHEDPEVKFNWYVDGVEVHNAKTKPREEQYNSTYRVVSVLTVLHQDWLNGKEYKCKVSNKALPAPIEKTISKAKGQPREPQVYVYPPSREEMTKNQVSLTCLVKGFYPSDIAVEWESNGQPENNYKTTPPVLDSDGSFALVSKLTVDKSRWQQGNVFSCSVMHEALHNHYTQKSLSLSPGK
notes: IgG1 1+1 heterodimer: one detuned anti-CD47 arm and one rituximab-derived anti-CD20 arm; also called CD47×CD20 bispecific; CD47×CD20 IgG1
Regarding B2, the EC50 (usually the concentration needed to bring the measured effect to its halfway point) in assay [2] stood at 1.64 nM; in assay [3] it was 1.3 nM. Moreover, the values for the binding result in the assay with human CD20 on cells and with mouse CD47 were “binds” and “no binding”, respectively. Also, the “IC50 of activation of macrophage phagocytosis, OCI-Ly3 cell line” value in assay [4] stood at 1.4 nM. Also, in [4], the “IC50 of activation of macrophage phagocytosis, Raji cell line” value is 1.8 nM. The equilibrium dissociation constant (Kd) (commonly the constant that tells how readily two partners part at equilibrium) in the assay with human CD47 ECD [5] came out at 1700 nM; in the assay with cynomolgus CD47 ECD, 4510 nM. Besides, in the assay with human CD47 ECD [5], the “fold decrease in affinity relative to the parental anti-CD47 binder” value is approximately 350 fold.

B3: TPP-1361 (bispecific antibody, human IgG1, kappa)
light 1: NIQMTQSPSSLSASVGDRVTITCQASQDIHRYLSWFQQDPGTVPQHLIYRESRFVDGVPSRFSGSGSGTEFTLTISSLQPEDFATYYCLQYDEFPYTFGGGTKVEIKRTVAAPSVFIFPPSDEELKSGTASVVCWLNNFYPREAKVQWKVDNALQSGNSEESVTEQDSKDSTYSLSSTLELSKADYEKHKVYACEVTHQGLSSPVTKSFNRGEC
heavy 1: QMQLVQSGAEVKKPGSSVKVSCKASGFNIKDYYLHWVRQAPGQGLEWMGWIDPDQGDTYYAQKFQGRVTITRDRSTSTAYMELASLTAEDTAVYYCNAAYGESSYPMDYWGQGTLVTVSSASTKGPSVFPLAPSSKSTSGGTAALGCLVKDYFPEPVTVSWNSGALTSGVHTFPAVLKSSGLYSLSSVVTVPSSSLGTQTYICNVNHKPSNTKVDKKVEPKSCDKTHTCPPCPAPELLGGPSVFLFPPKPKDTLMISRTPEVTCVVVDVSHEDPEVKFNWYVDGVEVHNAKTKPREEQYNSTYRVVSVLTVLHQDWLNGKEYKCKVSNKALPAPIEKTISKAKGQPREPQVYVLPPSREEMTKNQVSLLCLVKGFYPSDIAVEWESNGQPENNYLTWPPVLDSDGSFFLYSKLTVDKSRWQQGNVFSCSVMHEALHNHYTQKSLSLSPGK
light 2: QIVLSQSPAILSASPGEKVTMTCRASSSVSYIHWFQQKPGSSPKPWIYATSNLASGVPVRFSGSGSGTSYSLTISRVEAEDAATYYCQQWTSNPPTFGGGTKLEIKRTVAAPSVAIFPPSDERLKSGTASVVCVLNNFYPREAKVQWKVDNALQSGNSQESVTEQDSKDSTYSLSSRLTLSKADYEKHKVYACEVTHQGLSSPVTKSFNRGEC
heavy 2: QVQLQQPGAELVKPGASVKMSCKASGYTFTSYNMHWVKQTPGRGLEWIGAIYPGNGDTSYNQKFKGKATLTADKSSSTAYMQLSSLTSEDSAVYYCARSTYYGGDWYFNVWGAGTTVTVSAASTKGPSVFPLAPSSKSTSGGTAWLGCEVTDYFPEPVTVSWNSGALTSGVHTFPAVLESSGLYSLSSVVTVPSSSLGTQTYICNVNHKPSNTKVDKKVEPKSCDKTHTCPPCPAPELLGGPSVFLFPPKPKDTLMISRTPEVTCVVVDVSHEDPEVKFNWYVDGVEVHNAKTKPREEQYNSTYRVVSVLTVLHQDWLNGKEYKCKVSNKALPAPIEKTISKAKGQPREPQVYVYPPSREEMTKNQVSLTCLVKGFYPSDIAVEWESNGQPENNYKTTPPVLDSDGSFALVSKLTVDKSRWQQGNVFSCSVMHEALHNHYTQKSLSLSPGK
notes: IgG1 1+1 heterodimer; also called CD47×CD20 bispecific
In the assay with human CD47 ECD [6], B3 showed a Kd of 2530 nM. Also, in assay [7], the “EC50 of macrophage phagocytosis of OCI-Ly3 cells (column 'OCI-Ly3 Mφ EC50 (µg/mL)')” value was 0.5 µg/mL and the “EC50 of macrophage phagocytosis of OCI-Ly3 cells, repeat (column 'OCI-Ly3 Mφ EC50 (µg/mL) Repeat')” value is 0.45 µg/mL.

B4: TPP-1367 (bispecific antibody, human IgG1, kappa)
anti-CD47 light chain: NIQMTQSPSSLSASVGDRVTITCRASQDIHRYLSWFQQKPGKVPKHLIYRANRLVSGVPSRFSGSGSGTEFTLTISSLQPEDFATYYCLQYDEFPYTFGGGTKVEIKRTVAAPSVFIFPPSDEELKSGTASVVCWLNNFYPREAKVQWKVDNALQSGNSEESVTEQDSKDSTYSLSSTLELSKADYEKHKVYACEVTHQGLSSPVTKSFNRGEC
anti-CD47 heavy chain: QMQLVQSGAEVKKPGSSVKVSCKASGFNIKDYYLHWVRQAPGKGLEWMGWIDPDQGDTYYAQKFQGRVTITRDRSTSTAYMELRSLRAEDTAVYYCNAAYGESSYPMDYWGQGTLVTVSSASTKGPSVFPLAPSSKSTSGGTAALGCLVKDYFPEPVTVSWNSGALTSGVHTFPAVLKSSGLYSLSSVVTVPSSSLGTQTYICNVNHKPSNTKVDKKVEPKSCDKTHTCPPCPAPELLGGPSVFLFPPKPKDTLMISRTPEVTCVVVDVSHEDPEVKFNWYVDGVEVHNAKTKPREEQYNSTYRVVSVLTVLHQDWLNGKEYKCKVSNKALPAPIEKTISKAKGQPREPQVYVLPPSREEMTKNQVSLLCLVKGFYPSDIAVEWESNGQPENNYLTWPPVLDSDGSFFLYSKLTVDKSRWQQGNVFSCSVMHEALHNHYTQKSLSLSPGK
anti-CD20 light chain: QIVLSQSPAILSASPGEKVTMTCRASSSVSYIHWFQQKPGSSPKPWIYATSNLASGVPVRFSGSGSGTSYSLTISRVEAEDAATYYCQQWTSNPPTFGGGTKLEIKRTVAAPSVAIFPPSDERLKSGTASVVCVLNNFYPREAKVQWKVDNALQSGNSQESVTEQDSKDSTYSLSSRLTLSKADYEKHKVYACEVTHQGLSSPVTKSFNRGEC
anti-CD20 heavy chain: QVQLQQPGAELVKPGASVKMSCKASGYTFTSYNMHWVKQTPGRGLEWIGAIYPGNGDTSYNQKFKGKATLTADKSSSTAYMQLSSLTSEDSAVYYCARSTYYGGDWYFNVWGAGTTVTVSAASTKGPSVFPLAPSSKSTSGGTAWLGCEVTDYFPEPVTVSWNSGALTSGVHTFPAVLESSGLYSLSSVVTVPSSSLGTQTYICNVNHKPSNTKVDKKVEPKSCDKTHTCPPCPAPELLGGPSVFLFPPKPKDTLMISRTPEVTCVVVDVSHEDPEVKFNWYVDGVEVHNAKTKPREEQYNSTYRVVSVLTVLHQDWLNGKEYKCKVSNKALPAPIEKTISKAKGQPREPQVYVYPPSREEMTKNQVSLTCLVKGFYPSDIAVEWESNGQPENNYKTTPPVLDSDGSFALVSKLTVDKSRWQQGNVFSCSVMHEALHNHYTQKSLSLSPGK
notes: IgG1 1+1 heterodimer; also called CD47/CD20 TPP1367; CD47×CD20 bispecific
In the case of B4, the Kd with human CD47 ECD [6] was 430 nM. For the same molecule, in assay [7], the “EC50 of macrophage phagocytosis of OCI-Ly3 cells (column 'OCI-Ly3 Mφ EC50 (µg/mL)')” value was 0.064 µg/mL and the “EC50 of macrophage phagocytosis of OCI-Ly3 cells, repeat (column 'OCI-Ly3 Mφ EC50 (µg/mL) Repeat')” value turned out to be 0.046 µg/mL.

Source of the values: patent US20220162330A1 (CELGENE, published 2022).
